Data: patent publication US20250090676A1 (SUTRO BIOPHARMA, published 2025)

Experiments:
[1] = target: T1, murine folate receptor alpha (mouse, UniProt P35846 25-232); assay: FACS, CHO-mFOLR1 cells;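 note: flow cytometry binding of serially diluted test antibodies to transfected CHO cells on ice, mean fluorescence intensity, parental CHO cells give background, Kd from one-site specific binding fit with Hill slope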
T1 construct: Expressed on the surface of stably transfected CHO cells; also called mouse FolR1; CHO-mouse FolR1

[2] = target: T2, human folate receptor alpha (hFOLR1) (human, UniProt P15328 25-234); assay: FACS, CHO-hFOLR1 cells;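 note: flow cytometry of serially diluted antibodies binding CHO cells stably expressing the receptor, 60 min on ice, mixed with dye-tagged parental CHO as background control, one-site specific fit with Hill slope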
T2 construct: endogenous on FOLR1-positive KB and Igrov1 cells (cell killing); also called human FolR1; FolRα

[3] = target: T3, cynomolgus monkey folate receptor alpha (cynomolgus monkey, UniProt P15328 25-234 (human entry)); assay: FACS, CHO-cFOLR1 cells
T3 construct: Expressed on the surface of stably transfected CHO cells; also called cyno FolR1; CHO-cyno FolR1

[4] = target: T2, human folate receptor alpha (hFOLR1); assay: cell-based or functional assay

T1 sequence (P35846 25-232 limits assumed): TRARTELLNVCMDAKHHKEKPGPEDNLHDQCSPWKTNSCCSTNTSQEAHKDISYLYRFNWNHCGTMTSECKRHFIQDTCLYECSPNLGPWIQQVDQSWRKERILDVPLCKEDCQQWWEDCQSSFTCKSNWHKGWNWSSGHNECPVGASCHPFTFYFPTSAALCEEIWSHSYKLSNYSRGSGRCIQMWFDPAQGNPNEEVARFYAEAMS
T2 sequence (P15328 25-234 limits assumed): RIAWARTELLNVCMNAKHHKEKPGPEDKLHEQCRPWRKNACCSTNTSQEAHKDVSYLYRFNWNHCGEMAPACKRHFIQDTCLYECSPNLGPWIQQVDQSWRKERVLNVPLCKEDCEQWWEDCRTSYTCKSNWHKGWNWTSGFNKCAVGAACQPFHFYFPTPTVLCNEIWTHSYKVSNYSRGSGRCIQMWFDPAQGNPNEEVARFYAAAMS
T3 sequence (P15328 other isoform, or with tags, fused parts or gaps limits assumed): as the sequence (P15328 25-234 limits assumed) above, with I2T, W4R, R37K, Q117R, A146P, H171Y counted along it

Bmax (MFI) [1] [MFI]	Kd [1] [nM]	Bmax (MFI) [2] [MFI]	Kd [2] [nM]	Bmax (MFI) [3] [MFI]	Kd [3] [nM]	binding result [1]	Binder	Igrov, 2° Antibody Cell Killing, Nb-SC239: EC50 [4] [nM]	Igrov, 2° Antibody Cell Killing, Nb-SC239: Span [4] [%]	KB, 2° Antibody Cell Killing, Nb-239: EC50 [4] [nM]	KB, 2° Antibody Cell Killing, Nb-239: Span [4] [%]
4130	4.8	26800	0.52	15200	0.35	–	SRP1848-C05 (antibody, V domains shown, HC variant paired with trastuzumab LC, cell-free expressed, HIS- and FLAG-tagged; also called Antibody 21) VH: EVQLVESGGGLVQPGGSLRLSCAASGFNIRKYSIHWVRQAPGKGLEWVGDIFPIDGINDYADSVKGRFTISADTSKNTAYLQMNSLRAEDTAVYYCARGSWSWKAGYGYYLDYWGQGTLVTVSS VL: not shown	0.021	62	0.073	92
3750	1.8	25200	0.56	21500	0.43	–	SRP1848-F01 (antibody, V domains shown, HC variant paired with trastuzumab LC, cell-free expressed, HIS- and FLAG-tagged; also called Antibody 37) VH: EVQLVESGGGLVQPGGSLRLSCAASGFNIRTYSIHWVRQAPGKGLEWVGSIFPNDGTTDYADSVKGRFTISADTSKNTAYLQMNSLRAEDTAVYYCARGSWAWRAGYSYYLDYWGQGTLVTVSS VL: not shown	0.018	69	0.047	91
2330	5.6	27500	0.91	16000	0.27	–	SRP1848-C10 (antibody, V domains shown, HC variant paired with trastuzumab LC, cell-free expressed, HIS- and FLAG-tagged; also called Antibody 23) VH: EVQLVESGGGLVQPGGSLRLSCAASGFNIRTYYIHWVRQAPGKGLEWVGGISPIDGYTDYADSVKGRFTISADTSKNTAYLQMNSLRAEDTAVYYCARGSWSWPAGYGYYLDYWGQGTLVTVSS VL: not shown	0.036	75	0.057	96
5100	18	27200	0.72	24700	0.61	–	SRP1848-F05 (antibody, V domains shown, HC variant paired with trastuzumab LC, cell-free expressed, HIS- and FLAG-tagged; also called Antibody 40) VH: EVQLVESGGGLVQPGGSLRLSCAASGFNISKSSIHWVRQAPGKGLEWVGEIYPNDGSTDYADSVKGRFTISADTSKNTAYLQMNSLRAEDTAVYYCARGSWAWRSGYSYFLDYWGQGTLVTVSS VL: not shown	0.015	74	0.061	94
3170	1.4	28800	0.62	18100	0.23	–	SRP1848-C07 (antibody, V domains shown, HC variant paired with trastuzumab LC, cell-free expressed, HIS- and FLAG-tagged; also called Antibody 22) VH: EVQLVESGGGLVQPGGSLRLSCAASGFNIRKYSIHWVRQAPGKGLEWVGDIFPIDGITDYADSMKGRFTISADTSKNTAYLQMNSLRAEDTAVYYCARGSWSWPAGYGYYQDYWGQGTLVTVSS VL: not shown	0.013	67	0.065	93
1860	13	26500	0.48	20600	0.52	–	SRP1848-D10 (antibody, V domains shown, HC variant paired with trastuzumab LC, cell-free expressed, HIS- and FLAG-tagged; also called Antibody 30) VH: EVQLVESGGGLVQPGGSLRLSCAASGFNISRNSIHWVRQAPGKGLEWVGWISPNDGTTDYADSVKGRFTISADGSKNTAYLQMNSLRAEDTAVYYCARGAWSWRSGYGYYIDYWGQGTLVTVSS VL: not shown	0.012	54	0.016	90
2740	2.6	25700	0.62	14900	0.19	–	SRP1848-F02 (antibody, V domains shown, HC variant paired with trastuzumab LC, cell-free expressed, HIS- and FLAG-tagged; also called Antibody 38) VH: EVQLVESGGGLVQPGGSLRLSCAASGFNIRTYSIHWVRQAPGKGLEWVGSIFPNDGTTDYADSVKGRLTISADTSKNTAYLQMNSLRAEDTAVYYCARGSWSWQAGYGYYLDYWGQGTLVTVSS VL: not shown	0.009	54	0.054	92
–	–	27300	0.46	28200	0.55	no binding	SRP1848-E05 (antibody, V domains shown, HC variant paired with trastuzumab LC, cell-free expressed, HIS- and FLAG-tagged; also called Antibody 34) VH: EVQLVESGGGLVQPGGSLRVSCAASGFNIGVYYIHWVRQAPGKGLEWVGGITPNDGYTDYADSVKGRFTISADTSKNTAYLQMNSLRAEDTAVYYCARGFWAWRSGYGYYLDYWGQGTLVTVSS VL: not shown	0.027	78	0.071	95
–	–	26400	1.01	22400	0.96	no binding	SRP1848-E01 (antibody, V domains shown, HC variant paired with trastuzumab LC, cell-free expressed, HIS- and FLAG-tagged; also called Antibody 31) VH: EVQLVESGGGLVQPGGSLRLSCAASGFNITNKYIHWVRQAPGKGLEWVGGITPFDGFTDYADSVKGRFTISADTSKNTAYLQMNSLRAEDTAVYYCARGSWSWPAGYGYYQDYWGQGTLVTVSS VL: not shown	0.029	72	0.088	92
1360	14	26700	0.57	22200	0.45	–	SRP1848-D05 (antibody, V domains shown, HC variant paired with trastuzumab LC, cell-free expressed, HIS- and FLAG-tagged; also called Antibody 27) VH: EVQLVESGGGLVQPGGSLRLSCAASGFNISISYIHWVRQAPGKGLEWVGGISPIDGYTDYADSVKGRFTISADTSKNTAYLQMNSLRAEDTAVYYCARGSWSWRAGYGYYLDYWGQGTLVTVSS VL: not shown	–	73	0.055	92
11800	1.2	27300	0.54	20400	0.23	–	SRP1848-E07 (antibody, V domains shown, HC variant paired with trastuzumab LC, cell-free expressed, HIS- and FLAG-tagged; also called Antibody 36) VH: EVQLVESGGGLVQPGGSLRLSCAASGFNIRKSSIHWVRQAPGKGLEWVGEIFPYDGSTDYADNVKGRFTISADTSKNTAYLQMNSLRAEDTAVYYCARGAWSWRSGYGYYIDYWGQGTLVTVSS VL: not shown	0.013	73	0.059	94
916	87	28800	0.6	28000	0.61	–	SRP1848-D02 (antibody, V domains shown, HC variant paired with trastuzumab LC, cell-free expressed, HIS- and FLAG-tagged; also called Antibody 24) VH: EVQLVESGGGLVQPGGSLRLSCAASGFNISHNYIHWVRQAPGKGLEWVGGITPQDGYTDYADSVKGRFTISADTSKNTAYLQMNRLRAEDTAVYYCARGAWSWRAGYGYYLDYWGQGTLVTVSS VL: not shown	0.027	71	0.034	93
1470	21	23800	0.53	18700	0.59	–	SRP1848-E02 (antibody, V domains shown, HC variant paired with trastuzumab LC, cell-free expressed, HIS- and FLAG-tagged; also called SKP1848-E02; Antibody 32) VH: EVQLVESGGGLVQPGGSLRLSCAASGFNIGKYSIHWVRQAPGKGLEWVGEIYPNDGNTDYADSVKGRFTISADTSKNTAYLQMNSLRAEDTAVYYCARGSWSWRSGYGYYLDYWGQGTLVTVSS VL: not shown	0.025	71	0.046	93
–	–	25700	0.77	24300	0.92	no binding	SRP1848-D07 (antibody, V domains shown, HC variant paired with trastuzumab LC, cell-free expressed, HIS- and FLAG-tagged; also called Antibody 28) VH: EVQLVESGGGLVQPGGSLRLSCAASGFNISKYYIHWVRQAPGKGLEWVGGISPNDGYTDYADSVKGRFAISADTSKNTAYLQMNSLRAEDTAVYYCARGFWAWRSGYGYYLDYWGQGTLVTVSS VL: not shown	0.032	71	0.075	94
–	–	29300	2.21	25700	2.84	no binding	SRP1848-D04 (antibody, V domains shown, HC variant paired with trastuzumab LC, cell-free expressed, HIS- and FLAG-tagged; also called Antibody 26) VH: EVQLVESGGGLVQPGGSLRLSCAASGFNISHYSIHWVRQAPGKGLEWVGEIYPRDGITDYADSVKGRFTISADTSKNTAYLQMNSLSAEDTAVYYCARGYWFWRSGYGYYLDYWGQGTLVTVSS VL: not shown	0.068	77	0.38	97
–	–	25000	0.46	21300	0.65	no binding	SRP1848-D09 (antibody, V domains shown, HC variant paired with trastuzumab LC, cell-free expressed, HIS- and FLAG-tagged; also called Antibody 29) VH: EVQLVESGGGLVQPGGSLRLSCAASGFNISNYYIHWVRQAPGKGLEWVGGISPNDGYTDYADSVKGRFTISADTSKNTAYLQMNSLRAEDTAVYYCARGSWSWRHGYGYYLDYWGQGTLVTVSS VL: not shown	0.023	70	0.042	91
